# Measured values from paper PMC2791401.
# Target: p190RhoGAP-A (endogenous) (human (endogenous in HeLa)) (UniProt Q9NRY4)
# Assay: co-IP
# Sequence of UniProt Q9NRY4 (Q9NRY4 whole entry): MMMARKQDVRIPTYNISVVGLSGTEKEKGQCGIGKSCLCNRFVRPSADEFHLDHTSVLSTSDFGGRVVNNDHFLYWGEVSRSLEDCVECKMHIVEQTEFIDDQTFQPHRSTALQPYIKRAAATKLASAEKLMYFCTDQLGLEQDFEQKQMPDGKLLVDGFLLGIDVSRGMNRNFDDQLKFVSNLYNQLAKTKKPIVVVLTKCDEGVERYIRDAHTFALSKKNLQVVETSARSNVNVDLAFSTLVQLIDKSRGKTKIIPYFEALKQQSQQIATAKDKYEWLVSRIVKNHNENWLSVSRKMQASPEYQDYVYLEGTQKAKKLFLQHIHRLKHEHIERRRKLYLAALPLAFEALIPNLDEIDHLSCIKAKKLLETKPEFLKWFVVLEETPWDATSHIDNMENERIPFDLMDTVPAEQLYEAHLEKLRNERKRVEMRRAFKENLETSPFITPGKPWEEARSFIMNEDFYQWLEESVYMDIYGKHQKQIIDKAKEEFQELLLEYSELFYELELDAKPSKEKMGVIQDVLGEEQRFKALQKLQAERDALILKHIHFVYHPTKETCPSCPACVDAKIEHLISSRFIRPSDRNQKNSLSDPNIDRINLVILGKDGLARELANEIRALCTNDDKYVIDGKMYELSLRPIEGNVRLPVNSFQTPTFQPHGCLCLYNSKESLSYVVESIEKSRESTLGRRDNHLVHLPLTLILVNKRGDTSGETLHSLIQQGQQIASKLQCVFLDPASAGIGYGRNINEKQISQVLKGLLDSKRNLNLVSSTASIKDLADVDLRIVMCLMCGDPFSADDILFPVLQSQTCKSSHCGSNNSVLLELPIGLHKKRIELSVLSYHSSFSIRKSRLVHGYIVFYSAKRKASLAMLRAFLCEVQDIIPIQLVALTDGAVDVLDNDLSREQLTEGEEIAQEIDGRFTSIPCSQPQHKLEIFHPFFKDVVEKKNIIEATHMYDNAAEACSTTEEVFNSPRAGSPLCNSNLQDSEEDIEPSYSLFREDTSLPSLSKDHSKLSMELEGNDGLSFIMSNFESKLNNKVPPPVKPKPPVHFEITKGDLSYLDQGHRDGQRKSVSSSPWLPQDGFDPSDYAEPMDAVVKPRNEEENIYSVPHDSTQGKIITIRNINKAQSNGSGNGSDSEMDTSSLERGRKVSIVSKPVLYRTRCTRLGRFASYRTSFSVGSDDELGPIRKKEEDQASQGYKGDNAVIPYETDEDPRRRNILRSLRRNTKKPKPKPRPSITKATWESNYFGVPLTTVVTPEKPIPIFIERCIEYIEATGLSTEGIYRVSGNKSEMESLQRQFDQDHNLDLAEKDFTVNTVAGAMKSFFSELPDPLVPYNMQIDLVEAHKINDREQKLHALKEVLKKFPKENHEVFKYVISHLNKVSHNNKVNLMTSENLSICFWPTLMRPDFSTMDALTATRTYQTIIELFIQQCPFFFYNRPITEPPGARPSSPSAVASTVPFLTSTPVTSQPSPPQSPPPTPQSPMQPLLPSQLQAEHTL
substance,measurement,value
FLAG-tagged ECT2C (amino acids 414-883) (domain or fragment),IP/Total (amount co-immunoprecipitated by anti-p190 vs. total protein expressed),1.5
FLAG-tagged ECT2N (amino acids 1-334) (domain or fragment),IP/WL (amount co-immunoprecipitated by anti-p190 vs. total protein expressed),0.2
FLAG-tagged wild type ECT2 (pCEV29F3-ECT2) (natural protein),"abundance of the complex, percent of total p190 or ECT2",2 to 4%
